Assay results from publication PMC3655264, “A Large-Scale Conformational Change Couples Membrane Recruitment to Cargo Binding in the AP2 Clathrin Adaptor Complex” (Cell, 2010).
Each block holds one substance with its values, some of them ahead of it.

Tests used:
[1] = target: fluorescein-labeled TGN38 YxxΦ peptide (ASDYQRL); assay: fluorescence polarisation; equilibrium anisotropy titration with 500 μM polymeric heparin (~50 subunits); 20 nM fluorescein peptide; 21°C; 10 mM Tris pH 8.7, 250 mM NaCl
[2] = target: fluorescein-labeled TGN38 YxxΦ peptide (ASDYQRL); assay: fluorescence polarisation; stopped-flow polarized fluorescence, pre-steady-state kinetics, without heparin; 1 μM fluorescein peptide, protein at pseudo-first order excess; single exponential fits, kapp = koff + kon.C
[3] = target: fluorescein-labeled TGN38 YxxΦ peptide (ASDYQRL); assay: fluorescence polarisation; stopped-flow polarized fluorescence, pre-steady-state kinetics; AP2 preincubated for 30 min with 200 μM heparin; 1 μM fluorescein peptide
[4] = target: lipid-linked TGN38 sorting motif peptide (…) displayed in liposomes; assay: SPR; details: for Kd: 10% PtdIns4,5P2 + 1% TGN38 liposomes, five AP2 concentrations ranging from 50 nM to 1 μM
[5] = target: liposomes displaying both TGN38 YxxΦ peptide (m4) and CD4 dileucine peptide (m5); assay: SPR; details: 10% PtdIns4,5P2 + 0.5% TGN38 + 0.5% CD4 liposomes; five AP2 concentrations ranging from 50 nM to 1 μM
[6] = target: lipid-linked phosphorylated CD4 dileucine sorting signal peptide (…(SP)…) displayed in liposomes; assay: SPR; details: for Kd: 10% PtdIns4,5P2 + 1% CD4P liposomes, five AP2 concentrations ranging from 50 nM to 1 μM
[7] = target: liposomes containing 10% PtdIns4,5P2 (no cargo peptide); assay: SPR; details: 10% PtdIns4,5P2 liposomes; five AP2 concentrations ranging from 50 nM to 1 μM
[8] = target: lipid-linked TGN38 sorting motif peptide (…) displayed in liposomes; assay: not stated; unpublished data (S.H.); binding of AP2 cores to YxxΦ/PtdIns4,5P2-containing liposomes
[9] = target: lipid-linked TGN38 sorting motif peptide (…) displayed in liposomes; assay: SPR; peptido-liposomes with 10% PtdIns4,5P2 and lipid-linked peptide captured on an L1 sensor surface (BIAcore 3000, T100); AP2 cores injected; 10 mM Tris pH 8.7, 250 mM NaCl, 1 mM DTT; corrected for binding to PC/PE or PtdIns4,5P2 liposomes; apparent
[10] = target: lipid-linked phosphorylated CD4 dileucine sorting signal peptide (…(SP)…) displayed in liposomes; assay: as above
Target sequence in this assay (peptide, as listed by the source): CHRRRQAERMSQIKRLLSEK

Sequence of AP2 core (recombinant; α trunk, β2 trunk, myc-tagged μ2, σ2) (from UniProt P63010;P84092;P62743) αPIP- (substitutions in the PtdIns4,5P2-binding site of α; not printed) (P62743 whole entry, looked up, stated change not applied): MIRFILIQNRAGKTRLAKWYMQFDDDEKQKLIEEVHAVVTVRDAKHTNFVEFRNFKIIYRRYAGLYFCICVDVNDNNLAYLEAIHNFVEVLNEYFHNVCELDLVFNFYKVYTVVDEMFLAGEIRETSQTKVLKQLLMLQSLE
Sequence of AP2 core (recombinant; α trunk, β2 trunk, myc-tagged μ2, σ2) (from UniProt P63010;P84092;P62743) αPIP- (substitutions in the PtdIns4,5P2-binding site of α; not printed) (P84092 whole entry, looked up, stated change not applied): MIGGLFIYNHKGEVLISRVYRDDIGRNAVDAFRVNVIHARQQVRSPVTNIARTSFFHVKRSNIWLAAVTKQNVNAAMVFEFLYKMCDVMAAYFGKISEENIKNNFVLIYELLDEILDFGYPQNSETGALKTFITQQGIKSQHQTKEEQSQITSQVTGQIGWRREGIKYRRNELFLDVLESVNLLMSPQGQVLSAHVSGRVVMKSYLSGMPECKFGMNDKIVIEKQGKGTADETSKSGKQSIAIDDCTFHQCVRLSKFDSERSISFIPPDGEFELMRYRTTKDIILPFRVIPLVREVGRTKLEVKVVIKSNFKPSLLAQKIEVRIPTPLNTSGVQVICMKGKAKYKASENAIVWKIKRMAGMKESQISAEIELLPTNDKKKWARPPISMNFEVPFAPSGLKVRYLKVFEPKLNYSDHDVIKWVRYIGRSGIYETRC
Sequence of AP2 core (recombinant; α trunk, β2 trunk, myc-tagged μ2, σ2) (from UniProt P63010;P84092;P62743) αPIP- (substitutions in the PtdIns4,5P2-binding site of α; not printed) (P63010 whole entry, looked up, stated change not applied): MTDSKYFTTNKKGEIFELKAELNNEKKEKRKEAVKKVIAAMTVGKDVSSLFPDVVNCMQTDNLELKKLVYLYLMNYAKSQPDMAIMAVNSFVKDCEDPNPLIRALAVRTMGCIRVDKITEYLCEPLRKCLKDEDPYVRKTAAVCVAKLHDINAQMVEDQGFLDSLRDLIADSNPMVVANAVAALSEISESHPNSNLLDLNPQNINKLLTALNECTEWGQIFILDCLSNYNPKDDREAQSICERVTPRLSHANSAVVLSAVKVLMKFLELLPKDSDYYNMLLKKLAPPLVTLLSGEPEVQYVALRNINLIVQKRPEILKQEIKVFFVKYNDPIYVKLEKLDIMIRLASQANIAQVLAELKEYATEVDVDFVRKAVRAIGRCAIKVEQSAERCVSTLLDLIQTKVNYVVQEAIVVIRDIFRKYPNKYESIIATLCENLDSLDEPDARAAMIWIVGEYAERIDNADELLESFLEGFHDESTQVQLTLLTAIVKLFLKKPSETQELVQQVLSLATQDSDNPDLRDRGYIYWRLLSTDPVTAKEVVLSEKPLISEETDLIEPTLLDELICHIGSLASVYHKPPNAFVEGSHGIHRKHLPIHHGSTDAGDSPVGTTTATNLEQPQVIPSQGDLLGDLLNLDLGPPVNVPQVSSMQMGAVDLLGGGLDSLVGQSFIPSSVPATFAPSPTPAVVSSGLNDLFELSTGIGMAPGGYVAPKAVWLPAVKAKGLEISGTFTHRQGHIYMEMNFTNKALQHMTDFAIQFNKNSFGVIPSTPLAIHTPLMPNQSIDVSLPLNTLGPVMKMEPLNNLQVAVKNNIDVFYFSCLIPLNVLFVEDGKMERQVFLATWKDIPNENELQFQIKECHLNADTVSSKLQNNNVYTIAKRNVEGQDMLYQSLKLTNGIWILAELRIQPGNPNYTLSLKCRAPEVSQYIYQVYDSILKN
Sequence of AP2 core (recombinant; α trunk, β2 trunk, myc-tagged μ2, σ2) (from UniProt P63010;P84092;P62743) μ2PIP- (μ2 5K>E and μ2 KRR>E combined; individual residues not printed) (P62743 whole entry, looked up, change not shown): as the sequence (P62743 whole entry, looked up, stated change not applied) above
Sequence of AP2 core (recombinant; α trunk, β2 trunk, myc-tagged μ2, σ2) (from UniProt P63010;P84092;P62743) μ2PIP- (μ2 5K>E and μ2 KRR>E combined; individual residues not printed) (P84092 whole entry, looked up, change not shown): as the sequence (P84092 whole entry, looked up, stated change not applied) above
Sequence of AP2 core (recombinant; α trunk, β2 trunk, myc-tagged μ2, σ2) (from UniProt P63010;P84092;P62743) μ2PIP- (μ2 5K>E and μ2 KRR>E combined; individual residues not printed) (P63010 whole entry, looked up, change not shown): as the sequence (P63010 whole entry, looked up, stated change not applied) above
Sequence of μ2^PIP-Core (AP2 core with the μ2 mutations 5K>E and KRR>E combined) (P62743 whole entry, looked up, change not shown): as the sequence (P62743 whole entry, looked up, stated change not applied) above
Sequence of μ2^PIP-Core (AP2 core with the μ2 mutations 5K>E and KRR>E combined) (P84092 whole entry, looked up, change not shown): as the sequence (P84092 whole entry, looked up, stated change not applied) above
Sequence of μ2^PIP-Core (AP2 core with the μ2 mutations 5K>E and KRR>E combined) (P63010 whole entry, looked up, change not shown): as the sequence (P63010 whole entry, looked up, stated change not applied) above
Sequence of AP2 core (recombinant; α trunk, β2 trunk, myc-tagged μ2, σ2) (from UniProt P63010;P84092;P62743) β2:K5E; β2:K12E; β2:K26E; β2:K27E; β2:K29E; β2:K36E (P62743 whole entry, looked up, stated change not applied): as the sequence (P62743 whole entry, looked up, stated change not applied) above
Sequence of AP2 core (recombinant; α trunk, β2 trunk, myc-tagged μ2, σ2) (from UniProt P63010;P84092;P62743) β2:K5E; β2:K12E; β2:K26E; β2:K27E; β2:K29E; β2:K36E (P84092 whole entry, looked up, stated change not applied): as the sequence (P84092 whole entry, looked up, stated change not applied) above
Sequence of AP2 core (recombinant; α trunk, β2 trunk, myc-tagged μ2, σ2) (from UniProt P63010;P84092;P62743) β2:K5E; β2:K12E; β2:K26E; β2:K27E; β2:K29E; β2:K36E (P63010 whole entry, looked up, stated change not applied): as the sequence (P63010 whole entry, looked up, stated change not applied) above

Kd [1]: 3.4 µM
Kd [2]: 4000 µM
relaxation time at 30 μM AP2 without heparin [2]: 62.5 s
Kd [3]: 3.5 µM
koff [3]: 2 s⁻¹
kon [3]: 1e+06 M⁻¹ s⁻¹
relaxation time at 15 μM AP2 with heparin [3]: 0.059 s
relaxation time with heparin [3]: 0.056 s
Substance: AP2 core (recombinant; α trunk, β2 trunk, myc-tagged μ2, σ2) (from UniProt P63010 1-592; P84092 1-236; P84092 237-435; P62743 1-142) (complex)

response ([4]; 200 nM AP2 core, PtdIns4,5P2/TGN38 liposomes, corrected for non-specific binding to PC/PE liposomes, baseline about 80 RU, parent: est. 1800, read off a plot): 330 RU
Kd [4]: > 30 µM
Kd [5]: > 30 µM
response ([6]; 200 nM AP2 core, PtdIns4,5P2/CD4P liposomes, corrected for non-specific binding to PC/PE liposomes, baseline about 40 RU, parent: est. 1400, read off a plot): 180 RU
Substance: AP2 core (recombinant; α trunk, β2 trunk, myc-tagged μ2, σ2) (from UniProt P63010;P84092;P62743) αPIP- (substitutions in the PtdIns4,5P2-binding site of α; not printed)

Kd [5]: > 30 µM
Substance: AP2 core (recombinant; α trunk, β2 trunk, myc-tagged μ2, σ2) (from UniProt P63010;P84092;P62743) β2:K5E; β2:K12E; β2:K26E; β2:K27E; β2:K29E; β2:K36E

Kd [7]: 11 µM
Kd [4]: 0.52 µM
Kd [6]: 0.95 µM
Substance: AP2 core (recombinant; α trunk, β2 trunk, myc-tagged μ2, σ2) (from UniProt P63010;P84092;P62743) μ2 5K>E (five lysines of the second basic region of C-μ2 to glutamate; residues not printed)

Kd [7]: 7.5 µM
Kd [4]: 0.33 µM
Kd [6]: 0.85 µM
Substance: AP2 core (recombinant; α trunk, β2 trunk, myc-tagged μ2, σ2) (from UniProt P63010;P84092;P62743) μ2 KRR>E (three basic residues of the third basic region of C-μ2 to glutamate; residues not printed)

Kd [7]: 30 µM
Kd [4]: 6.2 µM
Kd [5]: 0.28 µM
Kd [6]: 2.5 µM
Substance: AP2 core (recombinant; α trunk, β2 trunk, myc-tagged μ2, σ2) (from UniProt P63010;P84092;P62743) μ2PIP- (μ2 5K>E and μ2 KRR>E combined; individual residues not printed)

Kd [2]: 0.5 µM
relaxation time at 15 μM C-μ2 [2]: 0.0073 s
Substance: isolated C-terminal domain of μ2 (C-μ2) (from UniProt P84092 1-435) (domain or fragment)

fold less binding than phosphorylated AP2 core [8]: 20 fold
fold weaker binding than wild-type core [8]: 4 fold
Substance: μ2Thr156Glu AP2 core (from UniProt P63010 1-592; P84092 1-236; P84092 237-435; P62743 1-142) (complex)

fold inhibition of binding to PtdIns4,5P2/YxxΦ liposomes against the wild-type core [9]: 20 fold
fold reduction of binding to PtdIns4,5P2/[ED]xxxL[LI] liposomes against the wild-type core [10]: 3 fold
Substance: μ2^PIP-Core (AP2 core with the μ2 mutations 5K>E and KRR>E combined) (from UniProt P63010 1-592; P84092 1-236; P84092 237-435; P62743 1-142) (complex)
